Results: patent publication US6720153B1, “Luciferase reporter bioassay of parathyroid hormone compounds” (Aventis Pharmaceuticals Inc., priority 1998, dated 2004)

Molecular target: T1, PTH receptor (Homo sapiens, UniProt Q03431)
T1 construct: expressed in transfected cells; host or cells: HEK-293
T1 sequence (Q03431 27-593): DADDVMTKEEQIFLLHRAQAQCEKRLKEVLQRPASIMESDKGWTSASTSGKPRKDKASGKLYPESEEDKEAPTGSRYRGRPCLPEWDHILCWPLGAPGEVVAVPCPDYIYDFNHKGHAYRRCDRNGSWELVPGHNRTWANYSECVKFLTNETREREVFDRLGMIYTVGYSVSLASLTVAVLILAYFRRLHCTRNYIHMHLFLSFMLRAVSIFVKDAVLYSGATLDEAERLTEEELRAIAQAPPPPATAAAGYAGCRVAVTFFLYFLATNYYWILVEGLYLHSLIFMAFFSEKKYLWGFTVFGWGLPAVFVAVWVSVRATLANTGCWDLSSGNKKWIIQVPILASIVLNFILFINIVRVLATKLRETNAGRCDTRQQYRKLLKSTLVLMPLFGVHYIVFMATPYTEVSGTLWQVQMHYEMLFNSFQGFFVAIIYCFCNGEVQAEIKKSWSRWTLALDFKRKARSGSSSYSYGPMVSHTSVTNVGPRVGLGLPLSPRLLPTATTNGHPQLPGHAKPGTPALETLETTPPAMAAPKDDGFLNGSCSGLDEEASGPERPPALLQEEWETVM
Experiment: Luciferase reporter assay in hPTH receptor-expressing HEK-293 cells
Assay type: cell-based
Details: clones of PTH receptor expressing HEK-293 cells bearing pMCL3zeo luciferase reporter gene; clones selected for assay development
Excerpt: This cell line is obtained as described by Pines et al., Endocrinology, 1994, 135(4), 1713-1716, incorporated herein by reference.
The firefly luciferase reporter gene bearing the cAMP responsive elements is amplified by PCR from the pDMC16LUC vector using the method of Spengler et al., Nature, 1993, 365: 170-175, incorporated herein by reference. The PCR product containing the MMTV promoter, sixteen cAMP responsive elements and the luciferase gene is inserted into the zeocin resistant vector (pUTSV1 from InVitrogen). The final vector, termed pMCL3zeo, is then introduced into PTH receptor expressing HEK-293 cells using the lipofectamine method (reagents and method obtained from Gibco/BRL). Cells incorporating the luciferase reporter gene are selected by including zeocin in the culture medium. By limited dilution, different cell clones are isolated and expanded. These clones are tested for their responsiveness to PTH in terms of luciferase expression.
hPTH receptor-expressing HEK-293 cells bearing the luciferase reporter gene are cultured to 80-90% confluency. […] The luciferase activity in the lysates is measured by the addition of the luciferin substrate (Promega assay kit) to effect light production. The output of light is measured in a Wallac Trilux microbeta plate reader.

luciferase induction: 5-6 fold
Substance: parathyroid hormone [PTH]
